According to US11826400B2, “Neuregulin based compositions and uses thereof for preventing, treating or delaying the myocardial ischemia-reperfusion injury” (ZENSUN (SHANGHAI) SCIENCE & TECHNOLOGY LIMITED, priority 2010, dated 2023):

Tested on: myocardial ischemia reperfusion in rat
Test: Therapeutic effect on myocardial ischemia reperfusion in rat (coronary ligation 45 min, reperfusion 2 h, TCC staining of heart sections)
Type: in vivo, Wistar rats
Settings: P<0.05
Description: Wistar rats (male, 200˜240 g) were divided into groups and administered with different dosages of rhNRG-1, placebo or rhThymosin-β4 (as shown in Table 1) after anaesthetized with intra-abdominal injection of 20% urethane (5 ml/kg). Thirty minutes after the drug started to be given to the rats, the anterior descending limb of the left coronary artery was ligated for 45 minutes to cause partial myocardium turned white obviously in the ligation area. After that the ligation thread was loosen to keep coronary blood flow for 2 hours and then take out the heart rapidly and wash vascular fat away with normal saline, and then freeze the heart in −30° C. for one hour.
Cut the heart parallelly from apex to base along coronary sulcus to myocardium sections with the thickness of 1 mm, and then put them into TCC dye liquor for 20 min in 37° C. in a shaker. After staining extra dye was washed immediately with water, and then the sections were put into 4% formalin for one hour. Photo and analyze the total size and the infarction size of were analyzed with Image Analysis Software. Infarction size ratio equals to the ratio of the infarction size and the total size of the myocardium section.

B1: rhNRG-1: produced by Zensun (Shanghai) Science & Technology Ltd, having the amino acids of SEQ ID NO:1 (177-237 residues of NRG-1β2 isoform) (protein, listed as Homo sapiens)
chain: SHLVKCAEKEKTFCVNGGECFMVKDLSNPSRYLCKCPNEFTGDRCQNYVMASFYKAEELYQ
Group B, 10 μg/kg/h continuous infusion
  Infarction size compared with Group A (placebo): significantly smaller than that of Group A
Group C, 30 μg/kg/h continuous infusion
  Infarction size compared with Group A (placebo): significantly smaller than that of Group A
